These results are taken from article PMC11714219.

Sequences and labels used below:
B1: Estrogen receptor alpha, full length, ECFP-tagged, as in the ER βα FL biosensors with the linker [not stated] / Estrogen receptor beta (ER β), full length, mNeonGreen-tagged, as in the ER βα FL FRET biosensor [not stated] (parent)
chain 1: MTMTLHTKASGMALLHQIQGNELEPLNRPQLKIPLERPLGEVYLDSSKPAVYNYPEGAAYEFNAAAAANAQVYGQTGLPYGPGSEAAAFGSNGLGGFPPLNSVSPSPLMLLHPPPQLSPFLQPHGQQVPYYLENEPSGYTVREAGPPAFYRPNSDNRRQGGRERLASTNDKGSMAMESAKETRYCAVCNDYASGYHYGVWSCEGCKAFFKRSIQGHNDYMCPATNQCTIDKNRRKSCQACRLRKCYEVGMMKGGIRKDRRGGRMLKHKRQRDDGEGRGEVGSAGDMRAANLWPSPLMIKRSKKNSLALSLTADQMVSALLDAEPPILYSEYDPTRPFSEASMMGLLTNLADRELVHMINWAKRVPGFVDLTLHDQVHLLECAWLEILMIGLVWRSMEHPGKLLFAPNLLLDRNQGKCVEGMVEIFDMLLATSSRFRMMNLQGEEFVCLKSIILLNSGVYTFLSSTLKSLEEKDHIHRVLDKITDTLIHLMAKAGLTLQQQHQRLAQLLLILSHIRHMSNKGMEHLYSMKCKNVVPLYDLLLEMLDAHRLHAPTSRGGASVEETDQSHLATAGSTSSHSLQKYYITGEAEGFPATV
chain 2: MDIKNSPSSLNSPSSYNCSQSILPLEHGSIYIPSSYVDSHHEYPAMTFYSPAVMNYSIPSNVTNLEGGPGRQTTSPNVLWPTPGHLSPLVVHRQLSHLYAEPQKSPWCEARSLEHTLPVNRETLKRKVSGNRCASPVTGPGSKRDAHFCAVCSDYASGYHYGVWSCEGCKAFFKRSIQGHNDYICPATNQCTIDKNRRKSCQACRLRKCYEVGMVKCGSRRERCGYRLVRRQRSADEQLHCAGKAKRSGGHAPRVRELLLDALSPEQLVLTLLEAEPPHVLISRPSAPFTEASMMMSLTKLADKELVHMISWAKKIPGFVELSLFDQVRLLESCWMEVLMMGLMWRSIDHPGKLIFAPDLVLDRDEGKCVEGILEIFDMLLATTSRFRELKLQHKEYLCVKAMILLNSSMYPLVTATQDADSSRKLAHLLNAVTDALVWVIAKSGISSQQQSMRLANLLMLLSHVRHASNKGMEHLLNMKCKNVVPVYDLLLEMLNAHVLRGCKSSITGSECSPAEDSKSKEGSQNPQSQ

The assay covers variants of B1. Description: live-cell FRET biosensor imaging (ER βα heterodimerization, FRET/ECFP emission ratio). The conditions noted are these: with Estrogen receptor beta (ER β), 1 µM 17β-estradiol, value read at the end of the time course (30 min after E2), α mutant n = 12, WT n = 24, read off a plot, scale: R/R0.
Consider chain 1 MTMTLHTKASGMALLHQIQGNELEPLNRPQLKIPLERPLGEVYLDSSKPAVYNYPEGAAYEFNAAAAANAQVYGQTGLPYGPGSEAAAFGSNGLGGFPPLNSVSPSPLMLLHPPPQLSPFLQPHGQQVPYYLENEPSGYTVREAGPPAFYRPNSDNRRQGGRERLASTNDKGSMAMESAKETRYCAVCNDYASGYHYGVWSCEGCKAFFKRSIQGHNDYMCPATNQCTIDKNRRKSCQACRLRKCYEVGMMKGGIRKDRRGGRMLKHKRQRDDGEGRGEVGSAGDMRAANLWPSPLMIKRSKKNSLALSLTADQMVSALLDAEPPILYSEYDPTRPFSEASMMGLLTNLADRELVHMINWAKRVPGFVDLTLHDQVHLLECAWLEILMIGLVWRSMEHPGKLLFAPNLLLDRNQGKCVEGMVEIFDMLLATSSRFRMMNLQGEEFVCLKSIILLNSGVYTFLSSTLKSLEEKDHIHRVLDKITDTLIHLMAKAGLTLQQQHQRLAQRLLILSHIRHMSNKGMEHLYSMKCKNVVPLYDLLLEMLDAHRLHAPTSRGGASVEETDQSHLATAGSTSSHSLQKYYITGEAEGFPATV [chain 1 L507R], for which the response was 1.07.
